Assay results as given in article PMC6531468, “Combinatorial recognition of clustered RNA elements by the multidomain RNA-binding protein IMP3”.
Residue numbers refer to the chain shown, from its start.

How the values were obtained:
IMP3 KH1-d2 = IMP3 KH1-d2 (Homo sapiens, UniProt O00425 192-355, K294D;E295D); assay: ITC; EMSA: 10 mM Tris-HCl pH 7.5, 150 mM NaCl, 0.5 mM EDTA, 0.5 mM DTT, 0.1% NP-40, 5% glycerol, tRNA+BSA, 5 nM RNA, 30 min RT then ice; ITC/NMR: 20 mM Bis-Tris, 150 mM NaCl, 2 mM TCEP (protein buffer pH 6.5), ITC RT, NMR 25 C; conditions: protein: recombinant; tags: Trx-His6 removed by TEV, leaves GAMA
IMP3 KHd1-2 = IMP3 KHd1-2 (Homo sapiens, UniProt O00425 192-355, K213D;E214D); assay: as above; conditions: protein: recombinant; tags: Trx-His6 removed by TEV, leaves GAMA
IMP3 KH1-2 WT = IMP3 KH1-2 WT (Homo sapiens, UniProt O00425 192-355); assay: as above; conditions: protein: recombinant; tags: Trx-His6 removed by TEV, leaves GAMA
IMP3 dKH1-2 = IMP3 dKH1-2 (Homo sapiens, UniProt O00425 1-579, K213D;E214D;K294D;E295D); assay: EMSA; Hill n 1.9; EMSA: 10 mM Tris-HCl pH 7.5, 150 mM NaCl, 0.5 mM EDTA, 0.5 mM DTT, 0.1% NP-40, 5% glycerol, tRNA+BSA, 5 nM RNA, 30 min RT then ice; ITC/NMR: 20 mM Bis-Tris, 150 mM NaCl, 2 mM TCEP (protein buffer pH 6.5), ITC RT, NMR 25 C; conditions: protein: recombinant; tags: GST; label: 32P-UTP
IMP3 dRRM1 = IMP3 dRRM1 (Homo sapiens, UniProt O00425 1-579, Y5A;Y39A;F41A); assay: EMSA; Hill n 2.8; EMSA: 10 mM Tris-HCl pH 7.5, 150 mM NaCl, 0.5 mM EDTA, 0.5 mM DTT, 0.1% NP-40, 5% glycerol, tRNA+BSA, 5 nM RNA, 30 min RT then ice; ITC/NMR: 20 mM Bis-Tris, 150 mM NaCl, 2 mM TCEP (protein buffer pH 6.5), ITC RT, NMR 25 C; conditions: protein: recombinant; tags: GST; label: 32P-UTP
IMP3 full-length [1] = molecular target: T1, IMP3 full-length (Homo sapiens, UniProt O00425 1-579); assay: EMSA; tRNA and BSA competitors; EMSA: 10 mM Tris-HCl pH 7.5, 150 mM NaCl, 0.5 mM EDTA, 0.5 mM DTT, 0.1% NP-40, 5% glycerol, tRNA+BSA, 5 nM RNA, 30 min RT then ice; ITC/NMR: 20 mM Bis-Tris, 150 mM NaCl, 2 mM TCEP (protein buffer pH 6.5), ITC RT, NMR 25 C; conditions: protein: recombinant; tags: N-terminal GST (pGEX-6P2); C-terminal His6 removed by TEV; label: 32P-UTP
IMP3 full-length [2] = molecular target: T1, IMP3 full-length; assay: EMSA; EMSA: 10 mM Tris-HCl pH 7.5, 150 mM NaCl, 0.5 mM EDTA, 0.5 mM DTT, 0.1% NP-40, 5% glycerol, tRNA+BSA, 5 nM RNA, 30 min RT then ice; ITC/NMR: 20 mM Bis-Tris, 150 mM NaCl, 2 mM TCEP (protein buffer pH 6.5), ITC RT, NMR 25 C; conditions: protein: recombinant; tags: N-terminal GST (pGEX-6P2); C-terminal His6 removed by TEV; label: 32P-UTP
IMP3 RRM1-2 = IMP3 RRM1-2 (Homo sapiens, UniProt O00425 2-156); assay: ITC; EMSA: 10 mM Tris-HCl pH 7.5, 150 mM NaCl, 0.5 mM EDTA, 0.5 mM DTT, 0.1% NP-40, 5% glycerol, tRNA+BSA, 5 nM RNA, 30 min RT then ice; ITC/NMR: 20 mM Bis-Tris, 150 mM NaCl, 2 mM TCEP (protein buffer pH 6.5), ITC RT, NMR 25 C; conditions: protein: recombinant; tags: Trx-His6 removed by TEV; primer note: GA-MA-K3 N-terminus
IMP3 RRM1-2, sequence (O00425 2-156): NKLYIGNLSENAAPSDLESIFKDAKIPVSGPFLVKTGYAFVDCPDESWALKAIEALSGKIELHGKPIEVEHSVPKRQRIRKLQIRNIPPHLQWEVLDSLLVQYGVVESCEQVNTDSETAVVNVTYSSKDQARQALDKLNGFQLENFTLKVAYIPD

T1 sequence (O00425 whole entry): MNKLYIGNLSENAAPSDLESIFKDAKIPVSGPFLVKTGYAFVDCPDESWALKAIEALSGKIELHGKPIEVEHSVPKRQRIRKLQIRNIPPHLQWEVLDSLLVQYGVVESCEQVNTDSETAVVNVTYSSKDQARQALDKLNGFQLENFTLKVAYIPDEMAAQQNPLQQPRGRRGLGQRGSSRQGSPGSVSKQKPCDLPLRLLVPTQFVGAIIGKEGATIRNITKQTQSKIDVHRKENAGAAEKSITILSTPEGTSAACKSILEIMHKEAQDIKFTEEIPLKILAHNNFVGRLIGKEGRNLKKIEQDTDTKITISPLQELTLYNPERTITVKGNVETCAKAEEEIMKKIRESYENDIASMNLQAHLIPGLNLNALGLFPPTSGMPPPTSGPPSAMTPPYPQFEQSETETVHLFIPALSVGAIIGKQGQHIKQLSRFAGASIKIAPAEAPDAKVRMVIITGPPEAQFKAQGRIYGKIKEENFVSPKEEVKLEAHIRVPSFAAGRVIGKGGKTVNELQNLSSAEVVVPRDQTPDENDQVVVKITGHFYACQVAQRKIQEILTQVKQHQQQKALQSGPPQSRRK
IMP3 KH1-d2, sequence (O00425 192-355 K294D/E295D): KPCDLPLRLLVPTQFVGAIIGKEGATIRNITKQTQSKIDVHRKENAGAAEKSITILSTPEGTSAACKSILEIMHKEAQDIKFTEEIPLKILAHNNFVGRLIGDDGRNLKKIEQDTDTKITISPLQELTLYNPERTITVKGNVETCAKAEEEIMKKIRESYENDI
IMP3 dKH1-2, sequence (O00425 whole entry K213D/E214D/K294D/E295D): as the sequence (O00425 whole entry) above, with K213D, E214D, K294D, E295D counted along it
IMP3 KHd1-2, sequence (O00425 192-355 K213D/E214D): as the sequence (O00425 192-355 K294D/E295D) above, with K22D, E23D, D103K, D104E counted along it
IMP3 KH1-2 WT, sequence (O00425 192-355): as the sequence (O00425 192-355 K294D/E295D) above, with D103K, D104E counted along it
IMP3 dRRM1, sequence (O00425 whole entry Y5A/Y39A/F41A): as the sequence (O00425 whole entry) above, with Y5A, Y39A, F41A counted along it

For UCGGCAC (ssRNA) [GGC (CGG) 7-mer], the Kd (IMP3 KH1-d2) was 39000 ± 8000 nM, the binding result (IMP3 KHd1-2) was “no binding” and the Kd (IMP3 KH1-2 WT) was 45000 ± 8000 nM.

B1: 101-mer (ssRNA)
RNA: GGGAGGGAGGAAGGCAAUUUUGGAGGAACUACAGAACACAUAUCGCAGCUAAAACACAAUUUUGGAGGAACUACAGAAUGCGGCUAUCCACACACAAAGGG
For B1, the Kd (IMP3 dKH1-2) was 50.7 ± 1.6 nM, the Kd (IMP3 dRRM1) was 29.2 ± 1 nM and the Kd (IMP3 full-length [1]) was 3.5 ± 0.7 nM.

B2: 101-mer GGC<->CA (ssRNA)
RNA: B1 RNA with A56G, C57G, A58C, A59U, U60A, G82A, G83C, C84A
B2 was tested, and the Kd (IMP3 full-length [2]) was 15.4 ± 0.6 nM.

B3: 101-mer GGC->UG (ssRNA)
RNA: B1 RNA with G13U, C15U, A16G, C81U, G83U, C84G
B3 gave a Kd (IMP3 full-length [2]) of 23.8 ± 0.7 nM.

For CACACACACA (ssRNA) [(CA)5], the Kd (IMP3 RRM1-2) was 9000 ± 2000 nM.

B4: ANKRD17 exon 29 (ssRNA)
RNA: GGGUCUGUCCGAAGGCAGCUUUUUGUCACAGUUGUGAAGACAUCCAAUCGCCACACAACAACAGUCACAACCACGGCAAGCAACAACAACACUGCACCCACAAAUGCCACAUAUCCUAUGC
Binder B4 has a Kd (IMP3 full-length [2]) of 1.6 ± 0.4 nM.

B5: 101-mer CA->UG (ssRNA)
RNA: GGGAGGGAGGAAGGCAAUUUUGGAGGAACUACAGAAUGUGUAUCGCAGCUAAAAUGUGAUUUUGGAGGAACUACAGAAUGCGGCUAUCUGUGUGUGAAGGG
For B5, the Kd (IMP3 full-length [2]) was 70.5 ± 3.2 nM.

B6: 101-mer allUG (ssRNA)
RNA: B5 RNA with G13U, C15U, A16G, C81U, G83U, C84G
In the case of B6, the Kd (IMP3 full-length [2]) is reported as 61.1 ± 3.6 nM.

B7: 101-mer GGC<->CA_UG (ssRNA)
RNA: B5 RNA with U55C, U57G, G58C, A59U, U60A, C81U, G83U, C84G
B7 was tested, and the Kd (IMP3 full-length [2]) was 34.9 ± 0.7 nM.

B8: 101-mer (CA)4<-> (ssRNA)
RNA: GGGAGGGACACACACAGGAAGGCAAUUUUGGAGGAACUACAGAACACAUAUCGCAGCUAAAACACAAUUUUGGAGGAACUACAGAAUGCGGCUAUCAAGGG
B8 showed a Kd (IMP3 full-length [2]) of 5.6 ± 0.8 nM.

AACACAA (ssRNA) [CA 7-mer]: no binding (IMP3 KH1-d2).

CACACA (ssRNA) [(CA)3] showed a Kd (IMP3 RRM1-2) of 8000 ± 3000 nM.

Work on GUGUGUGUGU (ssRNA) [(GU)5] yielded a Kd (IMP3 RRM1-2) of 49000 ± 3000 nM.
